Experimental data as given in patent US20260242735A1 (UNIVERSIT T BASEL, published 2026).

B1: Refmab #1 (antibody, V domains shown)
VH: EVQLVQSGAEVKKPGSSVKVSCKASGYTITDSNIHWVRQAPGQSLEWIGYIYPYNGGTDYNQKFKNRATLTVDNPTNTAYMELSSLRSEDTAFYYCVNGNPWLAYWGQGTLVTVSS
VL: DIQLTQSPSTLSASVGDRVTITCRASESLDNYGIRFLTWFQQKPGKAPKLLMYAASNQGSGVPSRFSGSGSGTEFTLTISSLQPDDFATYYCQQTKEVPWSFGQGTKVEVK
notes: Full-length format is human IgG1 (Absolute Antibody Ab00283-10.0); The alanine scan used IgG or Fab; also called hP67.6
B2: Refmab #4 (antibody, V domains shown)
VH: QVQLVQSGAEVKKPGESVKVSCKASGYTFTNYGMNWVKQAPGQGLEWMGWINTYTGEPTYADKFQGRVTMTTDTSTSTAYMEIRNLGGDDTAVYYCARWSWSDGYYVYFDYWGQGTSVTVSS
VL: DIVMTQSPDSLTVSLGERTTINCKSSQSVLDSSTNKNSLAWYQQKPGQPPKLLLSWASTRESGIPDRFSGSGSGTDFTLTIDSPQPEDSATYYCQQSAHFPITFGQGTRLEIK
notes: Full-length format is human IgG1 Fc silent (PG-LALA); The alanine scan used IgG or Fab
B3: Refmab #3 (antibody, V domains shown)
VH: QVQLVQSGAEVKKPGSSVKVSCKASGYTFTDYNMHWVRQAPGQGLEWIGYIYPYNGGTGYNQKFKSKATITADESTNTAYMELSSLRSEDTAVYYCARGRPAMDYWGQGTLVTVSS
VL: DIQMTQSPSSLSASVGDRVTITCRASESVDNYGISFMNWFQQKPGKAPKLLIYAASNQGSGVPSRFSGSGSGTDFTLTISSLQPDDFATYYCQQSKEVPWTFGQGTKVEIK
notes: as for B2

molecular target: human CD33 P72A (human, UniProt P20138 18-364); assay: alanine scan, flow cytometry;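 further: HEK293-T cells transiently expressing single-residue alanine mutants of CD33 (alanine swapped to serine), antibody binding read by fluorescence in duplicate, background-subtracted, expressed relative to wild-type CD33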

| Mean % WT Binding [% WT] | Binder |
| --- | --- |
| 99.9 | B1 |
| 94.6 | B2 |
| 108 | B3 |

molecular target: human CD33 E85A (human, UniProt P20138 18-364); assay: alanine scan, flow cytometry;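 further: HEK293-T cells transiently expressing single-residue alanine mutants of CD33 (alanine swapped to serine), antibody binding read by fluorescence in duplicate, background-subtracted, expressed relative to wild-type CD33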
Sequence (P20138 18-364 E85A limits assumed): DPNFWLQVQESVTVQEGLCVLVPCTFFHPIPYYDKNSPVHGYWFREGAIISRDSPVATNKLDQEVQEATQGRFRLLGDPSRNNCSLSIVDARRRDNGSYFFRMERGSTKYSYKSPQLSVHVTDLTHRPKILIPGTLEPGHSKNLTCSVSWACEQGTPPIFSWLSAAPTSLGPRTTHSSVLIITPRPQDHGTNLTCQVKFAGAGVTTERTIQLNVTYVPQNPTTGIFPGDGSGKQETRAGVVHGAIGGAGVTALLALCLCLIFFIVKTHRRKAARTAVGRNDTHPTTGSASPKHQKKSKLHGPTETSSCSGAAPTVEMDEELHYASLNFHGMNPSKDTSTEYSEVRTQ

| Mean % WT Binding [% WT] | Binder |
| --- | --- |
| 88.9 | B1 |
| 110 | B2 |
| 112 | B3 |

molecular target: human CD33 S28A (human, UniProt P20138 18-364); assay: alanine scan, flow cytometry;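 further: HEK293-T cells transiently expressing single-residue alanine mutants of CD33 (alanine swapped to serine), antibody binding read by fluorescence in duplicate, background-subtracted, expressed relative to wild-type CD33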
Sequence (P20138 18-364 S28A limits assumed): as the sequence (P20138 18-364 E85A limits assumed) above, with S11A, A68E counted along it

| Mean % WT Binding [% WT] | Binder |
| --- | --- |
| 93.9 | B1 |
| 79.9 | B2 |
| 193 | B3 |

molecular target: human CD33 L38A (human, UniProt P20138 18-364); assay: alanine scan, flow cytometry;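 further: HEK293-T cells transiently expressing single-residue alanine mutants of CD33 (alanine swapped to serine), antibody binding read by fluorescence in duplicate, background-subtracted, expressed relative to wild-type CD33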
Sequence (P20138 18-364 L38A limits assumed): as the sequence (P20138 18-364 E85A limits assumed) above, with L21A, A68E counted along it

| Mean % WT Binding [% WT] | Binder |
| --- | --- |
| 94.8 | B1 |
| 96.8 | B2 |
| 192 | B3 |

molecular target: human CD33 A74S (human, UniProt P20138 18-364); assay: alanine scan, flow cytometry
Sequence (P20138 18-364 A74S limits assumed): as the sequence (P20138 18-364 E85A limits assumed) above, with A57S, A68E counted along it

| Mean % WT Binding [% WT] | Binder |
| --- | --- |
| 83.7 | B1 |
| 72.5 | B2 |
| 115 | B3 |

molecular target: human CD33 R91A (human, UniProt P20138 18-364); assay: alanine scan, flow cytometry

| Mean % WT Binding [% WT] | Binder |
| --- | --- |
| 82 | B1 |
| 100 | B2 |
| 150 | B3 |

molecular target: human CD33 K77A (human, UniProt P20138 18-364); assay: alanine scan, flow cytometry

| Mean % WT Binding [% WT] | Binder |
| --- | --- |
| 95.6 | B1 |
| 123 | B2 |
| 192 | B3 |

molecular target: human CD33 V37A (human, UniProt P20138 18-364); assay: alanine scan, flow cytometry

| Mean % WT Binding [% WT] | Binder |
| --- | --- |
| 78.7 | B1 |
| 78.7 | B2 |
| 150 | B3 |

molecular target: human CD33 Q24A (human, UniProt P20138 18-364); assay: alanine scan, flow cytometry

| Mean % WT Binding [% WT] | Binder |
| --- | --- |
| 74.1 | B1 |
| 68.3 | B2 |
| 101 | B3 |

molecular target: human CD33 H45A (human, UniProt P20138 18-364); assay: alanine scan, flow cytometry
Sequence (P20138 18-364 H45A limits assumed): as the sequence (P20138 18-364 E85A limits assumed) above, with H28A, A68E counted along it

| Mean % WT Binding [% WT] | Binder |
| --- | --- |
| 38.7 | B1 |
| 134 | B2 |
| 55.1 | B3 |

molecular target: human CD33 A65S (human, UniProt P20138 18-364); assay: alanine scan, flow cytometry

| Mean % WT Binding [% WT] | Binder |
| --- | --- |
| 88.5 | B1 |
| 84 | B2 |
| 143 | B3 |

molecular target: human CD33 V82A (human, UniProt P20138 18-364); assay: alanine scan, flow cytometry

| Mean % WT Binding [% WT] | Binder |
| --- | --- |
| 99.6 | B1 |
| 144 | B2 |
| 141 | B3 |

molecular target: human CD33 E81A (human, UniProt P20138 18-364); assay: alanine scan, flow cytometry

| Mean % WT Binding [% WT] | Binder |
| --- | --- |
| 83 | B1 |
| 90.6 | B2 |
| 114 | B3 |

molecular target: human CD33 F21A (human, UniProt P20138 18-364); assay: alanine scan, flow cytometry
Sequence (P20138 18-364 F21A limits assumed): as the sequence (P20138 18-364 E85A limits assumed) above, with F4A, A68E counted along it

| Mean % WT Binding [% WT] | Binder |
| --- | --- |
| 0.4 | B1 |
| 43.6 | B2 |
| 13.6 | B3 |

molecular target: human CD33 I47A (human, UniProt P20138 18-364); assay: alanine scan, flow cytometry
Sequence (P20138 18-364 I47A limits assumed): as the sequence (P20138 18-364 E85A limits assumed) above, with I30A, A68E counted along it

| Mean % WT Binding [% WT] | Binder |
| --- | --- |
| 84.2 | B1 |
| 144 | B2 |
| 165 | B3 |

molecular target: human CD33 P48A (human, UniProt P20138 18-364); assay: alanine scan, flow cytometry

| Mean % WT Binding [% WT] | Binder |
| --- | --- |
| 86.2 | B1 |
| 8.4 | B2 |
| 167 | B3 |

molecular target: human CD33 T42A (human, UniProt P20138 18-364); assay: alanine scan, flow cytometry

| Mean % WT Binding [% WT] | Binder |
| --- | --- |
| 105 | B1 |
| 67.4 | B2 |
| 198 | B3 |

molecular target: human CD33 T30A (human, UniProt P20138 18-364); assay: alanine scan, flow cytometry

| Mean % WT Binding [% WT] | Binder |
| --- | --- |
| 89.3 | B1 |
| 104 | B2 |
| 104 | B3 |

molecular target: human CD33 P55A (human, UniProt P20138 18-364); assay: alanine scan, flow cytometry

| Mean % WT Binding [% WT] | Binder |
| --- | --- |
| 98.8 | B1 |
| 95.4 | B2 |
| 142 | B3 |

molecular target: human CD33 V25A (human, UniProt P20138 18-364); assay: alanine scan, flow cytometry

| Mean % WT Binding [% WT] | Binder |
| --- | --- |
| 90.7 | B1 |
| 49.1 | B2 |
| 109 | B3 |

molecular target: human CD33 D70A (human, UniProt P20138 18-364); assay: alanine scan, flow cytometry

| Mean % WT Binding [% WT] | Binder |
| --- | --- |
| 81.3 | B1 |
| 82.7 | B2 |
| 131 | B3 |

molecular target: human CD33 R62A (human, UniProt P20138 18-364); assay: alanine scan, flow cytometry

| Mean % WT Binding [% WT] | Binder |
| --- | --- |
| 121 | B1 |
| 104 | B2 |
| 91.8 | B3 |

molecular target: human CD33 N20A (human, UniProt P20138 18-364); assay: alanine scan, flow cytometry

| Mean % WT Binding [% WT] | Binder |
| --- | --- |
| 1.2 | B1 |
| 158 | B2 |
| 34.9 | B3 |

molecular target: human CD33 S68A (human, UniProt P20138 18-364); assay: alanine scan, flow cytometry

| Mean % WT Binding [% WT] | Binder |
| --- | --- |
| 91.3 | B1 |
| 90.4 | B2 |
| 115 | B3 |

molecular target: human CD33 K52A (human, UniProt P20138 18-364); assay: alanine scan, flow cytometry
Sequence (P20138 18-364 K52A limits assumed): as the sequence (P20138 18-364 E85A limits assumed) above, with K35A, A68E counted along it

| Mean % WT Binding [% WT] | Binder |
| --- | --- |
| 84.2 | B1 |
| 9.8 | B2 |
| 80.3 | B3 |

molecular target: human CD33 D51A (human, UniProt P20138 18-364); assay: alanine scan, flow cytometry

| Mean % WT Binding [% WT] | Binder |
| --- | --- |
| 82.4 | B1 |
| 36 | B2 |
| 126 | B3 |

molecular target: human CD33 Y50A (human, UniProt P20138 18-364); assay: alanine scan, flow cytometry

| Mean % WT Binding [% WT] | Binder |
| --- | --- |
| 86 | B1 |
| 3.5 | B2 |
| 109 | B3 |

molecular target: human CD33 V56A (human, UniProt P20138 18-364); assay: alanine scan, flow cytometry

| Mean % WT Binding [% WT] | Binder |
| --- | --- |
| 94.3 | B1 |
| 56.8 | B2 |
| 42.6 | B3 |

molecular target: human CD33 L92A (human, UniProt P20138 18-364); assay: alanine scan, flow cytometry
Sequence (P20138 18-364 L92A limits assumed): as the sequence (P20138 18-364 E85A limits assumed) above, with A68E, L75A counted along it

| Mean % WT Binding [% WT] | Binder |
| --- | --- |
| 75.2 | B1 |
| 85.2 | B2 |
| 129 | B3 |

molecular target: human CD33 W60A (human, UniProt P20138 18-364); assay: alanine scan, flow cytometry
Sequence (P20138 18-364 W60A limits assumed): as the sequence (P20138 18-364 E85A limits assumed) above, with W43A, A68E counted along it

| Mean % WT Binding [% WT] | Binder |
| --- | --- |
| 0.7 | B1 |
| 1 | B2 |
| 28.3 | B3 |

molecular target: human CD33 V73A (human, UniProt P20138 18-364); assay: alanine scan, flow cytometry

| Mean % WT Binding [% WT] | Binder |
| --- | --- |
| 73.6 | B1 |
| 67.2 | B2 |
| 149 | B3 |

molecular target: human CD33 Y49A (human, UniProt P20138 18-364); assay: alanine scan, flow cytometry
Sequence (P20138 18-364 Y49A limits assumed): as the sequence (P20138 18-364 E85A limits assumed) above, with Y32A, A68E counted along it

| Mean % WT Binding [% WT] | Binder |
| --- | --- |
| 106 | B1 |
| 3.1 | B2 |
| 86.6 | B3 |

molecular target: human CD33 N53A (human, UniProt P20138 18-364); assay: alanine scan, flow cytometry

| Mean % WT Binding [% WT] | Binder |
| --- | --- |
| 94.7 | B1 |
| 69 | B2 |
| 116 | B3 |

molecular target: human CD33 S71A (human, UniProt P20138 18-364); assay: alanine scan, flow cytometry

| Mean % WT Binding [% WT] | Binder |
| --- | --- |
| 108 | B1 |
| 99.4 | B2 |
| 118 | B3 |

molecular target: human CD33 L78A (human, UniProt P20138 18-364); assay: alanine scan, flow cytometry
Sequence (P20138 18-364 L78A limits assumed): as the sequence (P20138 18-364 E85A limits assumed) above, with L61A, A68E counted along it

| Mean % WT Binding [% WT] | Binder |
| --- | --- |
| 87.4 | B1 |
| 111 | B2 |
| 113 | B3 |

molecular target: human CD33 I66A (human, UniProt P20138 18-364); assay: alanine scan, flow cytometry

| Mean % WT Binding [% WT] | Binder |
| --- | --- |
| 96.6 | B1 |
| 108 | B2 |
| 126 | B3 |

molecular target: human CD33 L35A (human, UniProt P20138 18-364); assay: alanine scan, flow cytometry

| Mean % WT Binding [% WT] | Binder |
| --- | --- |
| 89.1 | B1 |
| 94.5 | B2 |
| 102 | B3 |

molecular target: human CD33 W22A (human, UniProt P20138 18-364); assay: alanine scan, flow cytometry
Sequence (P20138 18-364 W22A limits assumed): as the sequence (P20138 18-364 E85A limits assumed) above, with W5A, A68E counted along it

| Mean % WT Binding [% WT] | Binder |
| --- | --- |
| 79.4 | B1 |
| 187 | B2 |
| 58.6 | B3 |

molecular target: human CD33 G64A (human, UniProt P20138 18-364); assay: alanine scan, flow cytometry

| Mean % WT Binding [% WT] | Binder |
| --- | --- |
| 90.6 | B1 |
| 93.9 | B2 |
| 96.6 | B3 |

molecular target: human CD33 Q80A (human, UniProt P20138 18-364); assay: alanine scan, flow cytometry

| Mean % WT Binding [% WT] | Binder |
| --- | --- |
| 91.6 | B1 |
| 124 | B2 |
| 123 | B3 |

molecular target: human CD33 C36A (human, UniProt P20138 18-364); assay: alanine scan, flow cytometry

| Mean % WT Binding [% WT] | Binder |
| --- | --- |
| 72.6 | B1 |
| 108 | B2 |
| 102 | B3 |

molecular target: human CD33 R69A (human, UniProt P20138 18-364); assay: alanine scan, flow cytometry
Sequence (P20138 18-364 R69A limits assumed): as the sequence (P20138 18-364 E85A limits assumed) above, with R52A, A68E counted along it

| Mean % WT Binding [% WT] | Binder |
| --- | --- |
| 94.2 | B1 |
| 118 | B2 |
| 188 | B3 |
